Reference: patent WO2019024911A1 (dated 2019)

T1: human B7H3 antigen for detection, 4Ig-B7H3 (SinoBiological cat#11188-H08H) (human, UniProt Q5ZPR3 29-461)
T1 construct: Commercial product; also called human 4Ig-B7H3
T1 sequence: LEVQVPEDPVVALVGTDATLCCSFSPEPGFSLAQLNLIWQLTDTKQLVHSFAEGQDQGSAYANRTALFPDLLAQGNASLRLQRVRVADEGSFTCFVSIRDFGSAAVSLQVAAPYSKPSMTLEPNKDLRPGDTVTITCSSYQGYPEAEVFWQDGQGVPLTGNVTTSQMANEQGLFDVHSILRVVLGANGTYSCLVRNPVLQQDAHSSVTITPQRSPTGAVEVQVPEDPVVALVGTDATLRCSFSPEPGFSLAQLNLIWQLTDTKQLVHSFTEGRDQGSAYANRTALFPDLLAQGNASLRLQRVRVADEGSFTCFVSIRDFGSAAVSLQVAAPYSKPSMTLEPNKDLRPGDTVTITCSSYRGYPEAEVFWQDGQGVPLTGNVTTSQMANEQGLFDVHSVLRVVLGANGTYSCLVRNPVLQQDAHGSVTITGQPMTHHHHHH

T2: human B7H3 antigen for screening and detection, 2Ig-B7H3 (R&D cat#1949-B3-050/CF) (human, UniProt Q5ZPR3 29-245)
T2 construct: Commercial product; also called human 2Ig-B7H3
T2 sequence: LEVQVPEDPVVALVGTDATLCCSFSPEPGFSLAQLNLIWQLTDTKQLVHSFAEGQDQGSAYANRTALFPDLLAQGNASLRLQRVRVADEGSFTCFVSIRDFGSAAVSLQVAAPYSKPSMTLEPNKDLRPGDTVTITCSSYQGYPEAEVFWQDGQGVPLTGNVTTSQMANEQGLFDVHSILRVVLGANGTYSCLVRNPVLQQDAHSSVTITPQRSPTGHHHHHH

T3: murine B7H3 antigen for screening and detection (R&D cat#1397-B3-050/CF) (mouse, UniProt Q8VE98 29-244)
T3 construct: Commercial product; also called mouse B7H3
T3 sequence: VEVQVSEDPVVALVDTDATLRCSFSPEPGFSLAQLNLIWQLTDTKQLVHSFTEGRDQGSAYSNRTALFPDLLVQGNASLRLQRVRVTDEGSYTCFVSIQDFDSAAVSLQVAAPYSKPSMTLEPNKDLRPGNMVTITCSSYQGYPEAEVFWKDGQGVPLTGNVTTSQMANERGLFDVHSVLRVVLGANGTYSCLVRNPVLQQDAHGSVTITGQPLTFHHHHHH


Tests used:
[1] = target: T1, human B7H3 antigen for detection, …; experiment: ELISA, antigen coated at 1 ug/ml, HRP anti-human IgG Fc detection (column of the single value not certain)
[2] = target: T1, human B7H3 antigen for detection, …; experiment: SPR (Biacore T200), ADC captured on Protein A chip, antigen in flow, 1:1 Langmuir fit (column of the single value inferred)
[3] = target: T2, human B7H3 antigen for screening and …; experiment: ELISA, antigen coated at 1 ug/ml, HRP anti-human IgG Fc detection
[4] = target: T1, human B7H3 antigen for detection, …; experiment: as above
[5] = target: T3, murine B7H3 antigen for screening and …; experiment: ELISA, mouse B7H3 coated at 1 ug/ml, HRP anti-human IgG Fc detection
[6] = target: T2, human B7H3 antigen for screening and …; experiment: SPR (Biacore T200), ADC captured on Protein A chip, antigen in flow, 1:1 Langmuir fit (column of the single value inferred)
[7] = target: T2, human B7H3 antigen for screening and …; experiment: SPR (Biacore T200), antibody captured on Protein A chip, antigen in flow, 1:1 Langmuir fit
[8] = target: T2, human B7H3 antigen for screening and …; experiment: SPR (Biacore T200), ADC captured on Protein A chip, antigen in flow, 1:1 Langmuir fit
[9] = target: T1, human B7H3 antigen for detection, …; experiment: SPR (Biacore T200), antibody captured on Protein A chip, antigen in flow, 1:1 Langmuir fit
[10] = target: T1, human B7H3 antigen for detection, …; experiment: SPR (Biacore T200), ADC captured on Protein A chip, antigen in flow, 1:1 Langmuir fit

Row | EC50 [1] [nM] | Kd [2] [nM] | EC50 [3] [nM] | EC50 [4] [nM] | EC50 [5] [nM] | Kd [6] [nM] | Kd [7] [nM] | Kd [8] [nM] | Kd [9] [nM] | Kd [10] [nM] | Binder
1 | 0.3 | 10.6 | – | – | – | – | – | – | – | – | B7H3-h1702DS-cys-3024 (antibody-drug conjugate of h1702-DS with drug-linker 3024 on cysteines) (antibody, human IgG1, lambda, drug-linker 3024 on cysteine thiols after TCEP reduction; positions not given; average y = 3.55 per antibody) heavy: not shown light: DTVVTQEPSFSVSPGGTVTLTCGLSSGSVSTSHYPSWYQQTPGQAPRMLIYNTNTRSSGVPDRFSGSILGNKAALTITGAQADDESDYYCAIHVDRDIWVFGGGTKLTVLGQPKANPTVTLFPPSSEELQANKATLVCLISDFYPGAVTVAWKADGSPVKAGVETTKPSKQSNNKYAASSYLSLTPEQWKSHRSYSCQVTHEGSTVEKTVAPTEC
2 | – | – | 2.36 | 3.08 | 116 | 193 | – | – | – | – | B7H3-h1703-L2-MC-MMAF (antibody-drug conjugate of h1703 with MC-MMAF) (antibody, human IgG1, kappa, V domains shown, MC-MMAF coupled through a propylthiol linker (L2) to lysine residues of the antibody; positions not given; average y = 2.29 per antibody, also called h1703-MMAF) VH: QVQLQESGGGLVQPGGSLRLSCAASGFTFSSYAMSWVRQAPGKGLEWVSAISGSGGSTYYADSVKGRYTISRDNSKNTLYLQMNSLRAEDTAVYYCAKGVGPVHALDVWGQGTTVTVSS VL: DIRLTQSPSSLSASVGDRVTITCRASQSISTYLNWYQQKPGKAPILLINAVSGLQSGVPSRFSGSGSGTHFTLTITSLQPEDFATYYCQQSYSTPMWTFGQGTKVEIKR
3 | – | – | 10.3 | 2.1 | 86.7 | – | 448 | – | – | – | h1703 antibody (fully human anti-B7H3 full-length antibody) (antibody, human IgG1, kappa, V domains shown, IgG1 heavy chain, kappa light chain; naked antibody; also called B7H3-h1703) VH: QVQLQESGGGLVQPGGSLRLSCAASGFTFSSYAMSWVRQAPGKGLEWVSAISGSGGSTYYADSVKGRYTISRDNSKNTLYLQMNSLRAEDTAVYYCAKGVGPVHALDVWGQGTTVTVSS VL: DIRLTQSPSSLSASVGDRVTITCRASQSISTYLNWYQQKPGKAPILLINAVSGLQSGVPSRFSGSGSGTHFTLTITSLQPEDFATYYCQQSYSTPMWTFGQGTKVEIKR
4 | – | – | 15.1 | 4.97 | 115 | – | – | 219 | – | – | B7H3-h1703-L2-3024 (antibody-drug conjugate of h1703 with drug-linker 3024) (antibody, human IgG1, kappa, V domains shown, drug-linker 3024 coupled through a propylthiol linker (L2) to lysine residues of the antibody; positions not given; average y = 1.62 per antibody, also called h1703-3024) VH: QVQLQESGGGLVQPGGSLRLSCAASGFTFSSYAMSWVRQAPGKGLEWVSAISGSGGSTYYADSVKGRYTISRDNSKNTLYLQMNSLRAEDTAVYYCAKGVGPVHALDVWGQGTTVTVSS VL: DIRLTQSPSSLSASVGDRVTITCRASQSISTYLNWYQQKPGKAPILLINAVSGLQSGVPSRFSGSGSGTHFTLTITSLQPEDFATYYCQQSYSTPMWTFGQGTKVEIKR
5 | – | – | 0.11 | 0.16 | 18.1 | – | 797 | – | 8.55 | – | h1702 antibody (fully human anti-B7H3 full-length antibody) (antibody, human IgG1, lambda, IgG1 heavy chain, lambda light chain; naked antibody expressed in HEK293E cells; also called B7H3-h1702) heavy: not shown light: QTVVTQEPSFSVSPGGTVTLTCGLSSGSVSTSHYPSWYQQTPGQAPRMLIYNTNTRSSGVPDRFSGSILGNKAALTITGAQADDESDYYCAIHVDRDIWVFGGGTKLTVLGQPKANPTVTLFPPSSEELQANKATLVCLISDFYPGAVTVAWKADGSPVKAGVETTKPSKQSNNKYAASSYLSLTPEQWKSHRSYSCQVTHEGSTVEKTVAPTECS
6 | – | – | 0.16 | 0.18 | 59 | 452 | – | – | – | – | B7H3-h1702-L2-MC-MMAF (antibody-drug conjugate of h1702 with MC-MMAF) (antibody, human IgG1, lambda, MC-MMAF coupled through a propylthiol linker (L2) to lysine residues of the antibody; positions not given; average y = 1.76 per antibody, also called h1702-MMAF) heavy: not shown light: QTVVTQEPSFSVSPGGTVTLTCGLSSGSVSTSHYPSWYQQTPGQAPRMLIYNTNTRSSGVPDRFSGSILGNKAALTITGAQADDESDYYCAIHVDRDIWVFGGGTKLTVLGQPKANPTVTLFPPSSEELQANKATLVCLISDFYPGAVTVAWKADGSPVKAGVETTKPSKQSNNKYAASSYLSLTPEQWKSHRSYSCQVTHEGSTVEKTVAPTECS
7 | 0.29 | 11.2 | – | – | – | – | – | – | – | – | B7H3-h1702-cys-3024 (antibody-drug conjugate of h1702 with drug-linker 3024 on cysteines) (antibody, human IgG1, lambda, drug-linker 3024 on cysteine thiols after TCEP reduction; positions not given; average y = 3.5 per antibody) heavy: not shown light: QTVVTQEPSFSVSPGGTVTLTCGLSSGSVSTSHYPSWYQQTPGQAPRMLIYNTNTRSSGVPDRFSGSILGNKAALTITGAQADDESDYYCAIHVDRDIWVFGGGTKLTVLGQPKANPTVTLFPPSSEELQANKATLVCLISDFYPGAVTVAWKADGSPVKAGVETTKPSKQSNNKYAASSYLSLTPEQWKSHRSYSCQVTHEGSTVEKTVAPTECS
8 | – | – | 0.17 | 0.26 | 131 | – | – | 580 | – | 10.5 | B7H3-h1702-L2-3024 (antibody-drug conjugate of h1702 with drug-linker 3024) (antibody, human IgG1, lambda, drug-linker 3024 coupled through a propylthiol linker (L2) to lysine residues of the antibody; positions not given; average y = 2.05 per antibody, also called h1702-3024) heavy: not shown light: QTVVTQEPSFSVSPGGTVTLTCGLSSGSVSTSHYPSWYQQTPGQAPRMLIYNTNTRSSGVPDRFSGSILGNKAALTITGAQADDESDYYCAIHVDRDIWVFGGGTKLTVLGQPKANPTVTLFPPSSEELQANKATLVCLISDFYPGAVTVAWKADGSPVKAGVETTKPSKQSNNKYAASSYLSLTPEQWKSHRSYSCQVTHEGSTVEKTVAPTECS
9 | 0.09 | 0.778 | – | – | – | – | – | – | – | – | B7H3-h1704-3-cys-3024 (antibody-drug conjugate of humanized h1704-3 with drug-linker 3024 on cysteines) (antibody, human IgG1, kappa, V domains shown, drug-linker 3024 on cysteine thiols after TCEP reduction; positions not given; average y = 3.4 per antibody, Antibody-drug conjugate made from antibody h1704-3 (IgG1, kappa)) VH: EVQLVESGGGLVKPGGSLRLSCAASGFTFSRYGMSWVRQAPGKGLEWVSAISSGGGSIYYPDTVKGRLTISRDNAKNTLYLQMNSLRAEDTAVYYCTRHYLLFEMDYWGQGTTVTVSS VL: DIVLTQSPSFLSASVGDRVTITCKASQNVNTAVAWYQQKPGKAPKLLIFSASNRYTGVPSRFSGSGSGTDFTLTISSLQPEDVAAYFCQQYSSSLTFGGGTKLEIKR
